Test results: patent publication US9192622B2, “MicroRNA-130a,b as a tumor suppressor and sensitizing agent for chemotherapy” (University of Houston, priority 2011, dated 2015)

B1: siP53: siRNA to p53 (SEQ ID NO: 27 and 28) (nucleic acid)
chain 1: RGRGRARURURURCRARURCRURCRURURGRURARURARURGR
chain 2: RURCRARURCRARURARURARCRARARGRARGRARURGRARARARURCRCRURC
modifications: listed as RNA, chemistry not fully specified

Legend:
HeyA8 cells = assay: Cisplatin dose-response, MTS viability with or without miR-130b; format: cell-based, human; details: 72 hours
Method: FIGS. 4A-4B: Impact of miR-130b on Cisplatin Dose-Response Curves. Cisplatin treated HeyA8 cells with either miR-130b or a negative control proliferation and apoptosis assays were measured 72 hours following treatment with cisplatin at the indicated concentrations. The assays were measured using MTS (FIG. 4A) and Caspase-Glo 3/7 (FIG. 4B) assays. The IC50 (concentration needed to reach 50% viability) values are shown beside the MTA graph. To assess the impact of miR-130b on cisplatin treatment, HEYA8 cells transfected with pmiR-130b, Negative control or nothing at a density of 2500 cells/well. Cells were treated with cisplatin across a range of concentrations from 0-10 μg/mL. After 72 hours, cells were assayed for growth and apoptosis activity using MTS and Caspase 3/7 assays from Promega as described before. Each sample was normalized to the parental non treated sample. Refractory disease that results from resistance to chemotherapy is a major problem for many ovarian cancer patients. The chemotherapy drug, cisplatin, works by intercalating the genomic DNA of tumor cells causing massive DNA damage that in turn causes the cells to undergo apoptosis or programmed cell […] et al. 2003). […] Seventy-two hours following cisplatin treatment, proliferation and caspase activity were measured using the same MTS and Caspase 3/7 assays used previously.

[1] = system: p63/p53/p73 network genes in HeyA8 cells; assay: qPCR gene expression after p53 siRNA with and without miR-130b; format: cell-based, human; details: HeyA8, siRNA to p53, 72 hrs post-transfection
Source text: FIGS. 6A-6B: Impact of siRNA against p53 on miR-130b-regulated patterns of gene expression. Since many of the up regulated genes that were induced by miR-130b were also downstream transcriptional targets of p53, transient, siRNA knockdown of p53 was used with and without miR-130b present in HeyA8 (FIG. 6A) and OVCAR8 (FIG. 6B) cells and used qPCR to measure our gene set again with respect to p53. The goal was to dissect the p53-dependent and independent impacts of miR-130b in the p53-wild type HeyA8.
For gene expression analysis of target genes, 75 ng of total RNA from each sample was reverse transcribed using the qScript cDNA Super mix from Quanta Biosciences (95048). All RT-qPCR was carried out with the Veriti OneStep from Applied Biosystems. All qPCR experiments used the […] and Power SYBR Green Master Mix (Applied Biosystems). 18S was used as the endogenous control for all targets.
To determine the role of p53 in miR-130b gene regulation the HEYA and OVCAR8 cell lines were co-transfected with miR-130b and p53 siRNA (IDT_HSC.RNAI.N000546.12.2, 5′-rGrGrA rUrUrU rCrArU rCrUrC rUrUrG rUrArU rArUrGr A-3′, SEQ ID NO: 27), 5′-rUrCrA rUrCrA rUrArU rArCrA rArGrA rGrArU rGrArA rArUrC rCrUrC-3′, SEQ ID NO: 28) 72 hrs post-transfection gene expression was assayed by Q-PCR as described before.
To determine which of these gene expression changes are dependent on p53 patterns of gene expression in miR-130b over-expressing HeyA8 cells were compared in the presence of a siRNA to p53 (siP53).

Molecule | cisplatin IC50 (concentration needed to reach 50% viability) (HeyA8 cells; HeyA8 with miR-130b) [µg/mL] | cisplatin IC50 (concentration needed to reach 50% viability) (HeyA8 cells; HeyA8 with negative miRNA control (NC)) [µg/mL] | MDM2 expression level [1] | RB1 expression level [1] | p21 expression level [1] | p53 expression level [1]
N.N.[Cl][Pt][Cl] [cisplatin] | ~9.9 | ~18.3 |  |  |  | 
B1 |  |  | down-regulated | up-regulated | down-regulated | down-regulated
